In one assay the target is human CXCL11 (human) (UniProt O14625). The experiment in a line: ELISA. Background: ELISA stands for enzyme-linked immunosorbent assay.
For the next assay, the target named is LY3041658 (human). The experiment in a line: SPR.

One may read the Kd as a measure of binding affinity in units of concentration.

Chain of human CXCL11 (O14625 22-94): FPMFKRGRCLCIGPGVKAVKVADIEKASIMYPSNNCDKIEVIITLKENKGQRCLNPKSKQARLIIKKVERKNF
Chain of human CXCL11 (human) (O14625 22-94): as above
Chain of human CXCL9 (Q07325 23-125): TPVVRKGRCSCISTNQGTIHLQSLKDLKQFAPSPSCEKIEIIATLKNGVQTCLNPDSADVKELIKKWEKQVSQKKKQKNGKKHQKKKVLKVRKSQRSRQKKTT

Turning to LY3041658 (antibody), in the assay with human CXCL11 (human), the fold shift in EC50 compared with the ELR+CXC chemokines is 200 fold. For “human CXCL9 (from UniProt Q07325 23-125) (ligand)”, the equilibrium dissociation constant (Kd) with LY3041658 (human) was determined as 100 nM. In the case of “human CXCL11 (from UniProt O14625 22-94) (ligand)”, the Kd with LY3041658 (human) is 100 nM. This lies in the sub-micromolar range.
